Measurements reported in patent US20240279288A1, “APPLICATION OF PLANT JAZ PROTEINS AND DERIVED POLYPEPTIDES IN PREVENTION AND TREATMENT OF HUMAN AND ANIMAL TUMORS” (ANYANG INSTITUTE OF SINO-COTTON INDUSTRY INNOVATION, priority 2021, published 2024).

Target: T1, c-Myc-215aa (Homo sapiens, UniProt P01106)
T1 construct: expressed in transfected cells
Assay: Yeast two hybrid and LUC with c-Myc truncated to first 215 amino acids
Type: binding
Excerpt: […]

T1 sequence (P01106 1-215): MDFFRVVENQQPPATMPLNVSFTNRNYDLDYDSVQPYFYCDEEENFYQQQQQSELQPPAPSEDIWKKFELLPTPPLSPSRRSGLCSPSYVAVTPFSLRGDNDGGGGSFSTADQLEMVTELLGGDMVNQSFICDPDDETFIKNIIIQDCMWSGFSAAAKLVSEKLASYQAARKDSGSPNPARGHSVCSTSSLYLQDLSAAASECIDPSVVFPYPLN

B1: GhJAZ1: cotton JAZ1 protein, gene number Gh_A05G0260, sequence SEQ ID No. 4; prokaryotically expressed with His tag, about 30 KD (protein)
chain: MSSCSESTAMKPARSPEKPSFAQTCNLLSQYLKEKGSFGDLSLGMTCNVEANGTPVVPPPTMNLFPLNDKSDDVCGRNGGNPKNLTSMDLFPQQAGLASKDDSPNKLEPQTAPMTIFYGGQVIVFNDFPANKAKEIMLLASNSSSQSNNSFNPIPFTSSIARSPIESSIGVPPTSKPVHPAQRAVPGDLPIARRASLHRFLEKRKDRITAKAPYQINNSAAAPSLSGDNKSWLGLAAQSP
modifications: His tag
notes: prokaryotically expressed with His tag, about 30 KD
interaction with first 215 amino acids truncated c-Myc: strong interactions
